Results as given in patent publication US20040018971A1 (published 2004).

Assays:
[1] = target: T1, HLA-A*0101 (human); experiment: competition with a 125I-labelled probe peptide for purified HLA-A*0101, gel filtration; ratio against the A*0101 standard peptide 944.02 [..] (25 nM)
T1 construct: Purified HLA molecule, 5 to 500 nM in the assay; also called HLA-A1

[2] = target: HLA-A*6802 (human); experiment: competition with 125I probe peptide for purified HLA
[3] = target: T2, HLA-A*6801 (purified HLA class I molecule) (human); experiment: competition vs 125I standard peptide, purified HLA
T2 construct: Purified MHC molecule

[4] = target: T3, HLA-A*3101 (purified HLA class I molecule) (human); experiment: competition vs 125I standard peptide, purified HLA
T3 construct: Purified MHC molecule

[5] = target: HLA-A*0301 (purified HLA class I molecule) (human); experiment: competition vs 125I standard peptide, purified HLA
[6] = target: T4, HLA-A*3301 (purified HLA class I molecule) (human); experiment: competition vs 125I standard peptide, purified HLA
T4 construct: Purified MHC molecule

[7] = target: T5, HLA-A*1101 (purified HLA class I molecule) (human); experiment: competition vs 125I standard peptide, purified HLA
T5 construct: Purified MHC molecule

[8] = target: HLA-A*6801 (human); experiment: inhibition of 125I-labelled standard peptide binding to purified HLA, gel filtration
[9] = target: HLA-A*1101 (human); experiment: as above
[10] = target: HLA-A*3301 (human); experiment: as above
[11] = target: HLA-A*3101 (human); experiment: as above
[12] = target: HLA-A*0301 (human); experiment: as above
[13] = target: T6, HLA-A*0201 (human); experiment: competitive inhibition of 125I-labeled probe peptide binding to purified HLA-A*0201
T6 construct: also called HLA-A2.1; A2.1

[14] = target: T7, HLA-DRB1*0401 (human); experiment: competition with 125I-labeled standard peptide, purified HLA-DR, gel filtration
T7 construct: also called DR4w4

[15] = target: T8, HLA-DRB1*0701 (human); experiment: as above
T8 construct: also called DR7

[16] = target: HLA-A*0202 (human); experiment: competition with 125I probe peptide for purified HLA
[17] = target: HLA-A*0206 (human); experiment: as above
[18] = target: HLA-A*0203 (human); experiment: as above
[19] = target: T9, HLA-A*0101 (human); experiment: competition with 125I-labelled probe peptide for purified HLA-A*0101, gel filtration
T9 construct: also called HLA-A1

B1: HER2/neu peptide, position 402, 10 amino acids (peptide)
peptide: TLEEITGYLY
notes: also called Her2/neu.402
relative binding ratio (IC50 of standard peptide / IC50 of test peptide) [1]: 1.1 ratio

B2: Her2/neu.952 (9-mer) YMIMVKCWM (peptide)
peptide: YMIMVKCWM
IC50 [2]: 1000 nM

B3: HER2/neu peptide, position 1132, 8 amino acids (peptide)
peptide: TCSPQPEY
notes: also called Her2/neu.1132
relative binding ratio (IC50 of standard peptide / IC50 of test peptide) [1]: -0.0021 ratio

B4: HER2/neu peptide, position 478, 10 amino acids (peptide)
peptide: HTVPWDQLFR
notes: also called Her2/neu.478
relative binding ratio [3]: 2 ratio (IC50 standard/IC50 test)
relative binding ratio [4]: 0.96 ratio (IC50 standard/IC50 test)
relative binding ratio [5]: 0.0035 ratio (IC50 standard/IC50 test)
relative binding ratio [6]: 0.33 ratio (IC50 standard/IC50 test)
relative binding ratio [7]: 0.072 ratio (IC50 standard/IC50 test)

B5: HER2/neu peptide, position 423, 10 amino acids (peptide)
peptide: SVFQNLQVIR
notes: Synthetic A3 supermotif peptide
relative binding ratio [8]: 0.25 ratio (IC50 of standard peptide / IC50 of test peptide)
relative binding ratio [9]: 0.075 ratio (IC50 of standard peptide / IC50 of test peptide)
relative binding ratio [10]: 0.039 ratio (IC50 of standard peptide / IC50 of test peptide)
relative binding ratio [11]: 0.034 ratio (IC50 of standard peptide / IC50 of test peptide)
relative binding ratio [12]: 0.017 ratio (IC50 of standard peptide / IC50 of test peptide)

B6: Her2/neu.799 (peptide)
peptide: QLMPYGCLL
IC50 [13]: ≤ 500 nM

B7: HER2/neu DR supermotif exemplary peptide KEILDEAYVMAGVGS (position 765) (peptide)
peptide: KEILDEAYVMAGVGS
notes: synthetic 15-mer; also called Her2/neu.765
relative binding ratio [14]: 0.0073 ratio (standard IC50 / test IC50)
relative binding ratio [15]: -0.0011 ratio (standard IC50 / test IC50)

B8: Her2/neu.5 (10-mer) ALCRWGLLLA (peptide)
peptide: ALCRWGLLLA
IC50 [16]: 1960 nM
IC50 [17]: 1950 nM
IC50 [2]: 2500 nM
IC50 [18]: 12 nM

B9: HER2/neu peptide, position 822, 10 amino acids (peptide)
peptide: LLNWCMQIAK
relative binding ratio [3]: 0.0086 ratio (IC50 standard/IC50 test)
relative binding ratio [4]: 0.01 ratio (IC50 standard/IC50 test)
relative binding ratio [5]: 0.14 ratio (IC50 standard/IC50 test)
relative binding ratio [6]: 0.0088 ratio (IC50 standard/IC50 test)
relative binding ratio [7]: 0.14 ratio (IC50 standard/IC50 test)

B10: HER2/neu peptide, position 753, 10 amino acids (peptide)
peptide: KVLRENTSPK
relative binding ratio [3]: 0.0008 ratio (IC50 standard/IC50 test)
relative binding ratio [4]: 0.0068 ratio (IC50 standard/IC50 test)
relative binding ratio [5]: 0.38 ratio (IC50 standard/IC50 test)
relative binding ratio [6]: 0.0012 ratio (IC50 standard/IC50 test)
relative binding ratio [7]: 0.22 ratio (IC50 standard/IC50 test)

B11: HER2/neu peptide, position 840, 10 amino acids (peptide)
peptide: RLVHRDLAAR
notes: as for B5
relative binding ratio [8]: 0.0036 ratio (IC50 of standard peptide / IC50 of test peptide)
relative binding ratio [9]: 0.0001 ratio (IC50 of standard peptide / IC50 of test peptide)
relative binding ratio [10]: 0.0021 ratio (IC50 of standard peptide / IC50 of test peptide)
relative binding ratio [11]: 0.95 ratio (IC50 of standard peptide / IC50 of test peptide)
relative binding ratio [12]: 0.18 ratio (IC50 of standard peptide / IC50 of test peptide)

B12: HER2/neu peptide, position 948, 10 amino acids (peptide)
peptide: TIDVYMIMVK
notes: as for B5
relative binding ratio [8]: 0.025 ratio (IC50 of standard peptide / IC50 of test peptide)
relative binding ratio [9]: 0.12 ratio (IC50 of standard peptide / IC50 of test peptide)
relative binding ratio [10]: 0.012 ratio (IC50 of standard peptide / IC50 of test peptide)
relative binding ratio [11]: 0.0018 ratio (IC50 of standard peptide / IC50 of test peptide)
relative binding ratio [12]: 0.013 ratio (IC50 of standard peptide / IC50 of test peptide)

B13: HER2/neu peptide, position 334, 10 amino acids (peptide)
peptide: CSKPCARVCY
relative binding ratio [19]: 0.0016 ratio (IC50 of standard peptide / IC50 of test peptide)

B14: Her2/neu.106 (10-mer) QLFEDNYALA (peptide)
peptide: QLFEDNYALA
IC50 [16]: 662 nM
IC50 [17]: 218 nM
IC50 [2]: 74 nM
IC50 [18]: 9.1 nM

B15: HER2/neu peptide, position 851, 10 amino acids (peptide)
peptide: VLVKSPNHVK
notes: as for B5
relative binding ratio [8]: 0.0005 ratio (IC50 of standard peptide / IC50 of test peptide)
relative binding ratio [9]: 0.0072 ratio (IC50 of standard peptide / IC50 of test peptide)
relative binding ratio [10]: 0.0032 ratio (IC50 of standard peptide / IC50 of test peptide)
relative binding ratio [11]: 0.0052 ratio (IC50 of standard peptide / IC50 of test peptide)
relative binding ratio [12]: 0.082 ratio (IC50 of standard peptide / IC50 of test peptide)

B16: HER2/neu peptide, position 601, 10 amino acids (peptide)
peptide: PSGVKPDLSY
relative binding ratio [19]: 0.001 ratio (IC50 of standard peptide / IC50 of test peptide)

B17: HER2/neu peptide, position 402, 8 amino acids (peptide)
peptide: TLEEITGY
notes: also called Her2/neu.402 (8-mer)
relative binding ratio (IC50 of standard peptide / IC50 of test peptide) [1]: -0.0021 ratio

B18: HER2/neu peptide, position 668, 9 amino acids (peptide)
peptide: GVVFGILIK
relative binding ratio [3]: 0.0011 ratio (IC50 standard/IC50 test)
relative binding ratio [4]: 0.0019 ratio (IC50 standard/IC50 test)
relative binding ratio [5]: 0.0047 ratio (IC50 standard/IC50 test)
relative binding ratio [6]: 0.0025 ratio (IC50 standard/IC50 test)
relative binding ratio [7]: 0.089 ratio (IC50 standard/IC50 test)

B19: HER2/neu peptide, position 296, 8 amino acids (peptide)
peptide: VTACPYNY
notes: also called Her2/neu.296
relative binding ratio (IC50 of standard peptide / IC50 of test peptide) [1]: 0.1 ratio

B20: HER2/neu peptide, position 1102, 11 amino acids (peptide)
peptide: PTHDPSPLQRY
relative binding ratio [19]: 0.016 ratio (IC50 of standard peptide / IC50 of test peptide)
